From article PMC8688910

Target: IpaB (invasion plasmid antigen B), C-terminal his6-tag, produced in CFPS (S. flexneri 2a)
Assay: SEC-MALS; Superdex200 10/30 Increase, 50 mM Tris pH 8, 150 mM NaCl, 0.1% (v/v) LDAO, 0.5 mL/min, column 25 °C, about 50-100 μg injected

IpaB (invasion plasmid antigen B), C-terminal his6-tag, produced in CFPS (natural protein)
stoichiometry N: 2
